Laboratory results taken from patent US20220002417A1 (BAILI BIO CHENGDU PHARMACEUTICAL, published 2022).

The binders below were run against T1, human PD-L1 extracellular domain (human, UniProt Q9NZQ7 19-238) (assay: BLI (Octet Red 96), antibody on anti-human Fc biosensor, PD-L1 ECD in solution, 1:1 global fit).
T1 construct: also called recombinant PD-L1; recombinant human PD-L1 extracellular domain protein
Description: The binding kinetics of selected anti-PD-L1 antibodies AB1-AB5 and AB1HU-AB5HU was determined by bio-layer interferometry analysis on a ForteBio Octet Red 96 instrument. First, purified antibodies were produced by protein A chromatography using HEK-293 transiently-transfected antibody supernatants. This assay was performed by immobilizing the purified antibodies to anti-human Fc biosensors. PD-L1 binding to and dissociation from the biosensors was then observed at various concentrations of PD-L1. Specifically, eight anti-human Fc biosensors were placed into wells containing the same purified antibody for 5 minutes. Biosensors were equilibrated in kinetics buffer (Pall ForteBio) for 1 minute to establish a baseline. Association of PD-L1 was observed by placing the biosensors into wells containing various concentrations of human PD-L1 extracellular domain for 5 minutes. Dissociation was measured after transfer of the biosensors into kinetics buffer and monitoring the interferometry signals for 15 minutes. All steps of the assay were performed at 30° C. with shaking at 1000 RPM. The on and off rates (kon and koff) and the equilibrium binding constant KD were determined using the software provided by the manufacturer and were fit using a 1:1 binding global fit model comprising several of the concentrations tested.

T1 sequence (Q9NZQ7 19-238 limits assumed): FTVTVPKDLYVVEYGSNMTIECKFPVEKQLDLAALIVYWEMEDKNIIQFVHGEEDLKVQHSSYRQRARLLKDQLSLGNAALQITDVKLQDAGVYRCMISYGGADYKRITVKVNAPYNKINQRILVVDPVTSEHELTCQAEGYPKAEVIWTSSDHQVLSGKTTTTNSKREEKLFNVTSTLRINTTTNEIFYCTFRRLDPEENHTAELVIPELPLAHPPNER

Binder | Kd [nM] | koff [s⁻¹] | kon [M⁻¹ s⁻¹]
AB1 (rabbit/human chimeric anti-PD-L1 antibody) (antibody, human IgG1, kappa, V domains shown, Rabbit variable domains on human IgG1 / human kappa constant domains; purified by protein A from HEK-293 supernatants; also called AB1 CHIMERIC) VH: QEQLVESGGGLVQPEGSLTLTCKASGFSFSSGYDMCWVRRAPGKGLEWIACIAAGSAGITYDANWAKGRFTISKTSSTTVTLQMTSLTAADTATYFCARSAFSFDYAMDLWGPGTLVTVSS VL: DPVLTQTPASVEVAVGGTVTIKCQASQSISSHLNWYQQKPGQPPKLLIYKASTLASGVPSRFKGSGSGTEFTLTISSVQCDNAATYYCQQGYSWGNVDNVFGGGTEVVVKR | 0.347 | 0.00015 | 433000
AB2HU (humanized form of antibody AB2) (antibody, human IgG1, kappa, V domains shown, Humanized, human gamma-1 / kappa constant domains) VH: not shown VL: AYDMTQSPSSVSASVGDRVTINCQASESISSFLSWYQQKPGKAPKLLIFSASTLASGVPSRFSGSGSGTDFTLTISSLQPEDFATYYCQQGYSKSNVDNAFGGGTKVEIKR | 0.366 | 0.000203 | 553000
AB3 (rabbit/human chimeric anti-PD-L1 antibody) (antibody, human IgG1, kappa, V domains shown, Rabbit variable domains on human IgG1 / human kappa constant domains; also called AB3 CHIMERIC) VH: QEQLEESGGGLVTPGGTLTLTCTVSGFSLSSYWMSWVRQAPGKGLEWIGVIDTNVYIYYANWAKGRFTISKTSTTVDLKITSPTTEDTATYFCARYVGNNDDYINLWGPGTLVTVSS VL: AVLTQTPSPVSAAVGGTVSISCQSSQSVYNGYWLSWYQQKPGQPPKLLIYGASTLASGVPSRFKGSGSGTQFTLTINDVQCDDAATYYCLGSYTSSTENSFGGGTEVVVKR | 0.467 | 0.000144 | 308000
AB3HU (humanized form of antibody AB3) (antibody, human IgG1, kappa, V domains shown, Humanized, human gamma-1 / kappa constant domains) VH: EVQLVESGGGLVQPGGSLRLSCAASGFSLSSYWMSWVRQAPGKGLEWIGVIDTNVYIYYANWAKGRFTISRDNSKNTLYLQMNSLRAEDTAVYYCARYVGNNDDYINLWGQGTLVTVSS VL: DIQMTQSPSTLSASVGDRVTITCQSSQSVYNGYWLSWYQQKPGKAPKLLIYGASTLASGVPSRFSGSGSGTEFTLTISSLQPDDFATYYCLGSYTSSTENSFGGGTKVEIKR | 1.81 | 0.000337 | 186000
AB4 (rabbit/human chimeric anti-PD-L1 antibody) (antibody, human IgG1, kappa, V domains shown, Rabbit variable domains on human IgG1 / human kappa constant domains; also called AB4 CHIMERIC) VH: QSVEESGGRLVTPGTPLTLTCTVSGIDLSVINMGWVRQAPGEGLEWIGTITYVGNTYYASWAKGRFTISKTSTTVDLKITSPTTEDTATYFCARESGTIYYSYFNLWGQGTLVTVSS VL: AFELTQTPASVSEPVGGTVTIKCQASESISNYLSWYQQIPGQPPNLLIYYASNLASGVPSRFKGSGSGTEFTLTISDLECADAATYYCQSYYGGGSAYTFGGGTEVVVKR | 1.01 | 0.000422 | 417000
AB4HU (humanized form of antibody AB4) (antibody, human IgG1, kappa, V domains shown, Humanized, human gamma-1 / kappa constant domains) VH: EVQLVESGGGLVQPGGSLRLSCTVSGIDLSVINMGWVRQAPGKGLEWIGTITYVGNTYYASWAKGRFTISKTSTTVDLKITSPTTEDTAVYYCARESGTIYYSYFNLWGQGTLVTVSS VL: AFELTQSPSSLSASVGDRVTIKCQASESISNYLSWYQQIPGKVPKLLIYYASNLASGVPSRFSGSGSGTDFTLTISSLQPEDVATYYCQSYYGGGSAYTFGGGTKVEIKR | 1.7 | 0.000766 | 451000
AB5 (rabbit/human chimeric anti-PD-L1 antibody) (antibody, human IgG1, kappa, V domains shown, Rabbit variable domains on human IgG1 / human kappa constant domains; also called AB5 CHIMERIC) VH: QSVEESGGRLVTPGTPLTLTCTVSGIDLNTYDMIWVRQAPGKGLEWIGIITYSGSRYYANWAKGRFTISKTSTTVDLRITSPTTEDTATYFCARDYMSGSHLWGPGTLVTVSS VL: AYDMTQTPASVEVAVGGTVTIKCQASEDIYSFLAWYQLKPGQSPKLLIHSASSLASGVSSRFKGSGSGTHFTLTISGVECADAATYYCQQGYGKNNVDNAFGGGTEVVVKR | 0.286 | 0.000175 | 613000
AB5HU (humanized form of antibody AB5) (antibody, human IgG1, kappa, V domains shown, Humanized, human gamma-1 / kappa constant domains) VH: QSVEESGGGLVQPGGSLRLSCTASGIDLNTYDMIWVRQAPGKGLEWVGIITYSGSRYYANWAKGRFTISKDNTKNTVYLQMNSLRAEDTAVYYCARDYMSGSHLWGQGTLVTVSS VL: AYDMTQSPSSVSASVGDRVTIKCQASEDIYSFLAWYQQKPGKAPKLLIHSASSLASGVPSRFSGSGSGTDFTLTISSLQPEDFATYYCQQGYGKNNVDNAFGGGTKVEIKR | 0.401 | 0.000234 | 583000
AB1HU (humanized form of antibody AB1) (antibody, human IgG1, kappa, V domains shown, Humanized, human gamma-1 / kappa constant domains) VH: EVQLLESGGGLVQPGGSLRLSCAASGFSFSSGYDMCWVRQAPGKGLEWIACIAAGSAGITYDANWAKGRFTISRDNSKNTLYLQMNSLRAEDTAVYYCARSAFSFDYAMDLWGQGTLVTVSS VL: DIQMTQSPSTLSASVGDRVTITCQASQSISSHLNWYQQKPGKAPKLLIYKASTLASGVPSRFSGSGSGTEFTLTISSLQPDDFATYYCQQGYSWGNVDNVFGGGTKVEIKR | 0.422 | 0.000239 | 568000
AB2 (rabbit/human chimeric anti-PD-L1 antibody) (antibody, human IgG1, kappa, V domains shown, Rabbit variable domains on human IgG1 / human kappa constant domains; also called AB2 CHIMERIC) VH: QSLEESGGRLVTPGTPLTLTCTTSGIDLSTYDMIWVRQAPGKGLEYIGIISYVGNTYYASWAKGRFTLSKTSTTVDLRITSPTTEDTATYFCARDFISGSHLWGPGTLVTVSS VL: AYDMTQTPASVSAAVGGTVTINCQASESISSFLSWYQQKPGQRPRLLIFSASTLASGVPSRFKGSGSGTEFTLTISGVECADAATYYCQQGYSKSNVDNAFGGGTEVVVKR | 0.379 | 0.000166 | 438000
